Biological target: BDBV GP (BDBV)
Assay: ELISA, GP coated at 1 μg/mL, 5A8 from 10 μg/mL in 1:3 dilutions

B1: 单克隆抗体5A8 (antibody, V domains shown)
VH: EVQLLESGGGLVKPGGSLRLSCAASGFTFSDYYMNWIRQAPGKGLEWVSYISSSGKTIYYADSVKGRFTISRDNAKKSLYLQMNSLRAEDTAVYYCARDREIVISTTILLGSDHYAMDVWGQGTTVTVSS
VL: DIQMTQSPFTLSASVGDRVTITCRASQSINSYLNWYQQKPGKAPKLLIYSASSLQSGVPSRFSGSGSGTDFTLTISSLQPEDFAIYYCQQTYRTPYTFGQGTKVEIKT
For B1, the EC50 was 0.126 µg/mL and the fold weaker binding than to EBOV GP was 10 fold.
